Source: article PMC4546058

What was measured:
[1] = molecular target: Str enolase 137/363–8 (ΔK428-K435) (Streptococcus pyogenes) (UniProt P69949)
[2] = molecular target: Str enolase 137/363–8 (ΔK428-K435) (Streptococcus pyogenes) (UniProt P69949); remark: listed apart in the source
[3] = molecular target: Str enolase 137/363–4 (ΔN432-K435) (Streptococcus pyogenes) (UniProt P69949)
[4] = molecular target: Str enolase 137/363–4 (ΔN432-K435) (Streptococcus pyogenes) (UniProt P69949); assay: AUC; sedimentation velocity, Beckman XL-I, 20°C, 30 000-37 000 RPM, TME-SO4 (50 mM Tris, 1 mM MgSO4, 0.1 mM EDTA, 44 mN H2SO4, pH 7.4); c(s) in Sedfit; octamer to 8 monomers
[5] = molecular target: Str enolase DB E363G (Streptococcus pyogenes) (UniProt P69949)
[6] = molecular target: Str enolase DB E363G (Streptococcus pyogenes) (UniProt P69949); assay: AUC; sedimentation velocity, Beckman XL-I, 20°C, 30 000-37 000 RPM, TME-SO4 (50 mM Tris, 1 mM MgSO4, 0.1 mM EDTA, 44 mN H2SO4, pH 7.4); c(s) in Sedfit; octamer to 8 monomers
[7] = molecular target: Str enolase 137/363–2 (ΔK434-K435) (Streptococcus pyogenes) (UniProt P69949)
[8] = molecular target: Str enolase 137/363–2 (ΔK434-K435) (Streptococcus pyogenes) (UniProt P69949); assay: AUC; sedimentation velocity, Beckman XL-I, 20°C, 30 000-37 000 RPM, TME-SO4 (50 mM Tris, 1 mM MgSO4, 0.1 mM EDTA, 44 mN H2SO4, pH 7.4); c(s) in Sedfit; octamer to 8 monomers
[9] = molecular target: Str enolase 137/363–3 (ΔL433-K435) (Streptococcus pyogenes) (UniProt P69949)
[10] = molecular target: Str enolase 137/363–3 (ΔL433-K435) (Streptococcus pyogenes) (UniProt P69949); assay: AUC; sedimentation velocity, Beckman XL-I, 20°C, 30 000-37 000 RPM, TME-SO4 (50 mM Tris, 1 mM MgSO4, 0.1 mM EDTA, 44 mN H2SO4, pH 7.4); c(s) in Sedfit; octamer to 8 monomers
[11] = molecular target: Str enolase 137/363–1 (ΔK435) (Streptococcus pyogenes) (UniProt P69949)
[12] = molecular target: Str enolase 137/363–1 (ΔK435) (Streptococcus pyogenes) (UniProt P69949); assay: AUC; sedimentation velocity, Beckman XL-I, 20°C, 30 000-37 000 RPM, TME-SO4 (50 mM Tris, 1 mM MgSO4, 0.1 mM EDTA, 44 mN H2SO4, pH 7.4); c(s) in Sedfit; octamer to 8 monomers
[13] = molecular target: Str enolase 137/363–5 (ΔY431-K435) (Streptococcus pyogenes) (UniProt P69949)
[14] = molecular target: Str enolase 137/363–5 (ΔY431-K435) (Streptococcus pyogenes) (UniProt P69949); assay: AUC; sedimentation velocity, Beckman XL-I, 20°C, 30 000-37 000 RPM, TME-SO4 (50 mM Tris, 1 mM MgSO4, 0.1 mM EDTA, 44 mN H2SO4, pH 7.4); c(s) in Sedfit; octamer to 8 monomers
[15] = molecular target: enolase from Streptococcus pyogenes F137L/E363G (Streptococcus pyogenes) (UniProt P69949)
[16] = molecular target: enolase from Streptococcus pyogenes F137L/E363G (Streptococcus pyogenes) (UniProt P69949); assay: AUC; sedimentation velocity, Beckman XL-I, 20°C, 30 000-37 000 RPM, TME-SO4 (50 mM Tris, 1 mM MgSO4, 0.1 mM EDTA, 44 mN H2SO4, pH 7.4); c(s) in Sedfit; octamer to 8 monomers
[17] = molecular target: Str enolase 137/363–6 (ΔF430-K435) (Streptococcus pyogenes) (UniProt P69949)
[18] = molecular target: Str enolase 137/363–6 (ΔF430-K435) (Streptococcus pyogenes) (UniProt P69949); remark: listed apart in the source
[19] = molecular target: Str enolase DB F137L (Streptococcus pyogenes) (UniProt P69949)
[20] = molecular target: Str enolase DB F137L (Streptococcus pyogenes) (UniProt P69949); assay: AUC; sedimentation velocity, Beckman XL-I, 20°C, 30 000-37 000 RPM, TME-SO4 (50 mM Tris, 1 mM MgSO4, 0.1 mM EDTA, 44 mN H2SO4, pH 7.4); c(s) in Sedfit; octamer to 8 monomers

## Str enolase 137/363–8 (ΔK428-K435) (from UniProt P69949 1-427) (enzyme)
[1]
  Molecular Activity (2-phosphoglycerate to phosphoenolpyruvate, 20°C), taken as the amount of octamer: 0.08 min⁻¹
[2]
  total amount of octamer estimated from activity assays, as percent of the concentration of the Str enolase DB: 0.0002%

## Str enolase 137/363–4 (ΔN432-K435) (from UniProt P69949 1-431) (enzyme)
[3]
  Molecular Activity (2-phosphoglycerate to phosphoenolpyruvate, 20°C), taken as the amount of octamer: 27 min⁻¹
[4]
  stoichiometry N: 8

## Str enolase DB E363G (from UniProt P69949 1-435) (enzyme)
[5]
  Molecular Activity (2-phosphoglycerate to phosphoenolpyruvate, 20°C), taken as the amount of octamer: 8460 min⁻¹
[6]
  stoichiometry N: 8

## Str enolase 137/363–2 (ΔK434-K435) (from UniProt P69949 1-433) (enzyme)
[7]
  Molecular Activity (2-phosphoglycerate to phosphoenolpyruvate, 20°C), taken as the amount of octamer: 1730 min⁻¹
[8]
  stoichiometry N: 8

## Str enolase 137/363–3 (ΔL433-K435) (from UniProt P69949 1-432) (enzyme)
[9]
  Molecular Activity (2-phosphoglycerate to phosphoenolpyruvate, 20°C), taken as the amount of octamer: 497 min⁻¹
[10]
  stoichiometry N: 8

## Str enolase 137/363–1 (ΔK435) (from UniProt P69949 1-434) (enzyme)
[11]
  Molecular Activity (2-phosphoglycerate to phosphoenolpyruvate, 20°C), taken as the amount of octamer: 4040 min⁻¹
[12]
  stoichiometry N: 8

## Str enolase 137/363–5 (ΔY431-K435) (from UniProt P69949 1-430) (enzyme)
[13]
  Molecular Activity (2-phosphoglycerate to phosphoenolpyruvate, 20°C), taken as the amount of octamer: 0.36 min⁻¹
[14]
  stoichiometry N: 8

## enolase from Streptococcus pyogenes F137L/E363G (from UniProt P69949 1-435) (enzyme)
[15]
  Molecular Activity (2-phosphoglycerate to phosphoenolpyruvate, 20°C), taken as the amount of octamer: 5250 min⁻¹
[16]
  stoichiometry N: 8

## Str enolase 137/363–6 (ΔF430-K435) (from UniProt P69949 1-429) (enzyme)
[17]
  Molecular Activity (2-phosphoglycerate to phosphoenolpyruvate, 20°C), taken as the amount of octamer: 0.22 min⁻¹
[18]
  total amount of octamer estimated from activity assays, as percent of the concentration of the Str enolase DB: 0.0002%

## Str enolase DB F137L (from UniProt P69949 1-435) (enzyme)
[19]
  Molecular Activity (2-phosphoglycerate to phosphoenolpyruvate, 20°C), taken as the amount of octamer: 7160 min⁻¹
[20]
  stoichiometry N: 8
